B1: TPR t1 (parent)
chain: GACCAAUCUGCCCUCAGAGCUCGAGAACAUCUUCGGAUGCAGAGGAGGCAGGCUUCGGUGGCGCGAUAGCGCCAACGUCCUCAACCUCCAAUGCAUCCCACCACAUGAUGAUGCCUGAAGAGCCUUGGUUUUUUG

The variants in the data set derive from B1. Description: polymerase ribozyme fitness, log enrichment relative to wild type (log ratio); higher = more active; in vitro selection for triplet polymerase activity. In a few lines: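 Mutant libraries were PCR-built and transcribed for each subunit of a heterodimeric triplet polymerase ribozyme and selected for one round in triplicate at −7 °C, frozen, before gel excision of extended constructs and streptavidin-bead capture. Input and output libraries were Illumina-sequenced, keeping genotypes with ≥10 input reads and ≥1 read per output. Fitness is a logarithmic ratio of genotype to wild-type enrichment, in base 2, using inverse-variance-weighted replicate averages.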
For U33G C64U U112G, the “polymerase ribozyme fitness (log ratio)” value is -6.48.
The value for G48A C62U C115U was -3.7.
With U7C G61U, the “polymerase ribozyme fitness (log ratio)” value is 0.179.
Take C31U C53U: the “polymerase ribozyme fitness (log ratio)” value was -4.91.
With U7A C56G C101U, the “polymerase ribozyme fitness (log ratio)” value amounted to 0.801.
In the case of C20G G135C, the “polymerase ribozyme fitness (log ratio)” value is -3.68.
In the case of A6G U7G A18C G48U C53A G63A C115A it was -1.55.
As to C11A G61A G93A C101G U112A U132A, the “polymerase ribozyme fitness (log ratio)” value is -1.04.
Regarding C28U G93A, the “polymerase ribozyme fitness (log ratio)” value is -1.92.
Consider A46C U54A G120U, for which the “polymerase ribozyme fitness (log ratio)” value is -0.501.
In the case of C70U A74C C101U it was -0.934; in that of C72U G117C U125G, -5.63.
In the case of U112C A118U it was 1.35.
Consider A43U C56G, for which the “polymerase ribozyme fitness (log ratio)” value is -1.4.
Regarding C34G G63C, the “polymerase ribozyme fitness (log ratio)” value was -6.66.
As for G39A A90G, the “polymerase ribozyme fitness (log ratio)” value came to 0.17.
Take C62A C97U U106A: the “polymerase ribozyme fitness (log ratio)” value is -1.52.
In the case of C8U U14A A41C C64U G93U C115U U125G U132A U133G, the “polymerase ribozyme fitness (log ratio)” value is -6.39.
For C11U A27U A103U G120C G122U, the “polymerase ribozyme fitness (log ratio)” value was -5.67.
In the case of A50G C123A it was 0.295.
For the variant G19C U87A, the “polymerase ribozyme fitness (log ratio)” value is -2.58.
The value for C13G A50U was -3.13; that for G36C C49U A74G C101G A119U was -3.8; that for C4G C11U C13U G47U C72G was -5.03.
In the case of C8U G47C G77C U129G it was -3.36; in that of G35A G120C, -2.79.
In the case of U21A A27C A68G C94A, the “polymerase ribozyme fitness (log ratio)” value was -6.24.
In the case of A6U G58A A83U U106A it was 0.545; in that of G17A A46U, -4.52.
In the case of G65A it was -3.57.
In the case of A43G G57U C73U A90U C102U it was -4.93; in that of C12A C40G C104U G128U, -3.15.
As for U21G C72A, the “polymerase ribozyme fitness (log ratio)” value was -0.561.
In the case of G60C C124A it was 1.07; in that of C20A C79A, -3.62; in that of U112C C124G, 1.79.
Consider G10A G51U G71U C101A, for which the “polymerase ribozyme fitness (log ratio)” value was -6.07.
In the case of U7C U87C U92G G122A C123U it was -1.22.
With C79U C94A C102A G120C, the “polymerase ribozyme fitness (log ratio)” value is -2.46.
For C12U C72U G128U, the “polymerase ribozyme fitness (log ratio)” value was -1.55.
Take C31U U54G U59C A103C A111C: the “polymerase ribozyme fitness (log ratio)” value is -5.45.
For the variant G10A C49G U133A, the “polymerase ribozyme fitness (log ratio)” value is -0.21.
For the variant A46U C62A, the “polymerase ribozyme fitness (log ratio)” value was -2.13.
In the case of A5C G51A U78C G113U U133G it was -6.24; in that of C11G C13U U32C G65A G113C G120U, -6.75.
For A26G G120A, the “polymerase ribozyme fitness (log ratio)” value is -0.696.
With C28U C70U, the “polymerase ribozyme fitness (log ratio)” value is -2.13.
With C12G A26U C114A, the “polymerase ribozyme fitness (log ratio)” value is -6.59.
The value for C79A U81C G120U G135C was -2.91; that for A37C G61U C104U U112C was 1.04.
The value for G36A U59C U126G was -2.55.
As to G48C C56G C62U U78C C115U C124A, the “polymerase ribozyme fitness (log ratio)” value is -2.1.
The value for C20U G42C was -2.14; that for G69A C72G A95G U125A was -6.14; that for C12U G117A was 0.626.
In the case of A43G C64G U87G G110A it was -6.77; in that of U7A C12U A43U C49A C114G, -1.69; in that of C20U A105U, -3.87.
In the case of G23U A121C it was -3.5.
With A18U G60U U130C, the “polymerase ribozyme fitness (log ratio)” value was -1.84.
Consider C3A A6G C13U C15G U59C, for which the “polymerase ribozyme fitness (log ratio)” value was -3.21.
As to A26U C72G C97G G117U U125A, the “polymerase ribozyme fitness (log ratio)” value is -6.79.
Take U9C G17A A18G G113U: the “polymerase ribozyme fitness (log ratio)” value is -4.74.
In the case of C13U C82U, the “polymerase ribozyme fitness (log ratio)” value is -0.268.
For the variant C11G A43G U59A C64U, the “polymerase ribozyme fitness (log ratio)” value is -2.3.
In the case of C49A U55C G61C C104U it was -2.02.
In the case of A100U U112G it was -0.123.
For the variant C53G C124U U129A, the “polymerase ribozyme fitness (log ratio)” value was -0.596.
The value for G110A G135U was -1.92; that for C70A C104U was -1.79; that for G36A C49A C56G C80A A90G was -4.92.
In the case of G47A G48A A118G it was -2.29; in that of C49U G57U G61A G120A, -0.511; in that of C89A G110U, -3.66.
Take C3G C11A C12U G58C C62U: the “polymerase ribozyme fitness (log ratio)” value is -4.45.
The value for U7G G69U G122A was 0.793; that for G45A G63A C104A was -3.61.
The value for A95C U116G was -2.17; that for A26G was -1.67.
The value for C31U C123G G127A was -4.45; that for G17A C56A was -2.66; that for A6C G42U G63C C79U was -2.06.
As for G23A G77U, the “polymerase ribozyme fitness (log ratio)” value was -6.47.
The value for G71U C76A was -5.51.

For the origin of these results see the RNAGym collection of RNA variant scans (doi:10.1073/pnas.2313332121).
